Experimental data as given in patent US20220356229A1 (published 2022).

What was measured:
[1] = molecular target: SARS-CoV-2 Spike protein (SARS-CoV-2, UniProt P0DTC2 14-1208); test: HT-SPR (Carterra LSA), mAb coupled to chip, Spike in solution, 1:1 Langmuir fit
[2] = molecular target: SARS-CoV Spike protein (SARS-CoV, UniProt P59594 14-1190)
[3] = molecular target: SARS-CoV-2 full length Spike protein, wild type, expressed on CHO cells (SARS-CoV-2, UniProt P0DTC2 14-1273)
[4] = molecular target: SARS-CoV full length Spike protein, wild type, expressed on CHO cells (SARS-CoV, UniProt P59594 14-1255)
[5] = molecular target: SARS-CoV Spike protein (SARS-CoV, UniProt P59594 14-1190); remark: listed apart in the source

B1: mAb 1495 (antibody, V domains shown)
VH: QVQLVESGGGVVQPGRSLRLSCTASGFTFSSYAMHWVRQAPGKGLEWVAVISYDGNNKYYGDSVKGRFTISRDNSKNTLYLQMNSLRAEDTAVYYCAKGADTPHYSGYHFLSVGYYFYGMDVWGQGTTVTVSS
VL: DIQMTQSPSSLSASVGDRVTITCRASQSISYYLNWYQQKPGKAPQLLIYAASSLQSGVPSRFSGSRSGTDFTLTISSLQPEDFATYYCQQSYSTPFTFGPGTKVDIKR
notes: human IgG1
B1 was tested, and the Kd [1] was 0.0972 nM, the koff [1] was 1.01e-05 s⁻¹ and the kon [1] was 103000 M⁻¹ s⁻¹.

B2: antibody 474 (antibody, V domains shown)
VH: EVQLVESGGGLVQPGGSLRLSCAASGFTFSSYWMHWVRQAPGKGLVWVSRINSDGSSTSYADSVKGRFTISRDNAKNTLYRQMNSLRAEDTAVYYCALGPLDIVGSYYYYGMDVWGQGTTVTVSS
VL: NFMLTQPHSVSESPGKTVTISCTGSSGSIASNYVQWYQQRPGSAPTTVIYEDNQRPSGVPDRFSGSIDSSSNSASLTISGLKTEDEADYYCQSYDSSNQDVVFGGGTKLTVL
For B2, the “bead binding signal (fold over isotype control)” value [2] was 1.1.

B3: anti-SARS-CoV-2 antibody 923 (antibody, V domains shown)
VH: EVQLVESGGGVVRPGGSLRLSCAASGFIFDDYDMTWVRQAPGKGLEWVSGISWNGGNTGYADSVKGRFTISRDNAKNSLYLQMNSLRAEDTALYHCAVIMSPIPRYSGYDWAGGAFDIWGQGTMVTVSS
VL: SSELTQDPAVSVALGQTVRITCQGDSLRSYYASWYQQKPGQVPILVIYDKNNRPSGIPDRFSGSSSGNTASLTITGAQAEDEADYYCNSRDSSGNAVVFGGGTKLTVLG
For B3, the “median fluorescence intensity, fold over isotype control” value (“median fluorescence intensity, fold” for short) [3] was 59 fold over isotype and the “median fluorescence intensity, fold” value [4] was 118 fold over isotype.

B4: antibody 452 (antibody, V domains shown)
VH: QVQLVESGGGLVKPGGSLRLSCAASGFTFSDYYLSWIRQAPGKGLEWVSYISSSGSNIYYADSVKGRFTISRDNAKNSLYLQMNSLRADDTAVFYCARAGRYCSGGSCRVEYFQHWGQGTLVTVSS
VL: SYELTQPPSVSVSPGQTARITCSGDALPKQYAYWYQQKPGQAPVLVIYKDNERPSGIPERFSGSSSGTTATLTISGVQAEDEADYYCQSADSSGTVVFGGGTKLTVL
B4 was tested, and the “bead binding signal (fold over isotype control)” value [2] was 1.09.

B5: anti-SARS-CoV-2 antibody 970 (antibody, V domains shown)
VH: EVQLVESGGGLVQPGGSLRLSCAASGFTFSSYWMSWVRQAPGKGLEWVANINKDGSEKYYVDSVKGRFTISRDNAKNSLYLQMNSLRAEDTAVYFCARDYRYFDWLLSQIDLEIDYFDYWGQGTLVTVSS
VL: not shown
For B5, the “median fluorescence intensity, fold” value [3] was 20.6 fold over isotype and the “median fluorescence intensity, fold” value [4] was 124 fold over isotype.

B6: antibody 454 (antibody, V domains shown)
VH: QVQLVQSGAEVKKPGASLKVSCKASGYIFTGYYMHWVRQAPGQGLEWMGWISPNSGGTKYAQKFQGRVTMTRDTSISTAYMELSRLRSDDSAVYYCAREPYYDILTGYYTPRRYLDYWGQGTLVTVSS
VL: QSALTQPASVSGSPGQSITISCTGTSSDVGDYNYVSWYQQHPGKVPKLMIYDVSHRPSGVTNRFSGSKSGNTASLTISGLRAEDEADYYCSSYTSSSTYVFGTGTKVTVL
With B6 the “bead binding signal (fold over isotype control)” value [2] was 1.1.

B7: mAb 1538 (antibody, V domains shown)
VH: EVQLLESGGGLVQPGGSLRLSCAASGFTFSSYAMSWVRQAPGKGLEWVSGISDSGGSTYYADYVKGRFTISRDNSKDTLYLQMNSLRAEDTAVYYCAKDRGNEYALTHYYYYAMDVWGQGTTVTVSS
VL: DIQMTQSPSSLSASVGDRVTITCRASQSISSYLNWYQQKPGKAPKLLIYAAYSLQSGVPSRFSGGGSGTDFTLTISSLQPEDFATYFCQQSYSTPITFGQGTRLEIKR
notes: human IgG1
For B7, the Kd [1] was ≤ 0.0754 nM, the koff [1] was ≤ 1e-05 s⁻¹ and the kon [1] was 133000 M⁻¹ s⁻¹.

B8: antibody 446 (antibody, V domains shown)
VH: QVQLVESGGGVVQPGRSLRLSCAASGFTFSSYAMHWVRQAPGKGLEWVAVISYDGSNKYYADSVKGRFTISRDNSKNTLYLQMNSLRAEDTAVYYCARPNSGSYFGYFQHWGQGTLVTVSS
VL: QSVLTQPPSVSGAPGQRVTISCTGSSSNIGAGYDVHWYQQLPGTAPKLLIYGNSNRPSGVPDRFSGSKSGTSASLAITGLQAEDEADYYCQSYDSSLSGFYVFGTGTKVTVL
In the case of B8, the “bead binding signal (fold over isotype control)” value [2] is reported as 6.58.

B9: anti-coronavirus antibody 548 (antibody, V domains shown)
VH: QVQLVESGGGVVQPGRSLRLSCAASGFTFSSYAMHWVRQAPGKGLEWVAVISYDGSNKYYADSVKGRFTISRDNSKNTLYLQMNNLRAEDTAVYYCAKSGSGSYLSAFDIWGQGTMVTVSS
VL: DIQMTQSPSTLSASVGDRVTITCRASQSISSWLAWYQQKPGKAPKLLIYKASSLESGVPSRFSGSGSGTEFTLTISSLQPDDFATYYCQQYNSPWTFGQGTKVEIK
With B9 the “binding signal (fold over isotype control)” value [5] was 18.1 fold over isotype control.

B10: antibody 477 (antibody, V domains shown)
VH: QVQLVESGGGVVQPGRSLRLSCAASGITFSSYAMHWVRQAPGKGLEWVAVISYDGSDKYHADSVKGRFAISRDNSKNTLYLQMNSLRAEDTAVYYCAKDKGIAVAGTGWIRPDPEYYFDYWGQGTLVTVSS
VL: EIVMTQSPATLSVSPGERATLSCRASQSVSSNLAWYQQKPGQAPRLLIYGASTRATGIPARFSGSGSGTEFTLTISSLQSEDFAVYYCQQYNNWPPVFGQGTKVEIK
For B10, the “bead binding signal (fold over isotype control)” value [2] was 1.3.

B11: antibody 475 (antibody, V domains shown)
VH: QVQLVESGGGVVQPGRSLRLSCAASGFTFSSYAMHWVRQAPGKGLEWVTFISHEGSNKYYADSVKGRFTISRDNSKNTLYLQMNSLRAEDTAVYYCARTFEYSSSSATGDFDYWGQGTLVTVSS
VL: QSVLTQPPSVSGAPGQRVTISCTGSSSNIGAGYDVHWYQQLPGTAPKLLIYGNSNRPSGVPDRFSGSKSGTSASLAITGLQAEDEADYYCQSYDSSLSGVVFGGGTKLTVL
With B11 the “bead binding signal (fold over isotype control)” value [2] was 1.18.

B12: anti-coronavirus antibody 544 (antibody, V domains shown)
VH: QVQLQQWGAGLLKPSETLSLTCAVYGGSFSGYYWSWIRQPPGKGLEWIGEINHSGSTNYNPSLKSRVTISVDTSKNQFSLKLSSVTAADTAVYYCARGFKWFGELLFGAQGTLVTVSS
VL: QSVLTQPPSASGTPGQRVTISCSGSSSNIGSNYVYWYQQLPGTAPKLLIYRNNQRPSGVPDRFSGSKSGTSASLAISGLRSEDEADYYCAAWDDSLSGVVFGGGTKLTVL
B12 was tested, and the “binding signal (fold over isotype control)” value [5] was 1.05 fold over isotype control.

B13: antibody 470 (antibody, V domains shown)
VH: not shown
VL: QSALTQPASVSGSPGQSITISCTGTSSDVGSYNLVSWYQQHPGKAPKLMIYEVSKRPSGVSNRFSGSKSGNTASLTISGLQAEDEADYYCCSYAGSSTLVFGGGTKLTVL
In the case of B13, the “bead binding signal (fold over isotype control)” value [2] is reported as 1.09.

B14: antibody 485 (antibody, V domains shown)
VH: QVQLQESGPGLVKPSGTLSLTCAVSGASISSSNWWSWVRQPPGKGLEWIGEIYHSGSTNYNPSLKSRVTISVDKSKNQFSLKLSSVTAADTAVYYCARRSYYGSGSYYPFDYWGQGTLVTVSS
VL: QSALTQPASVSGSPGQSITISCTGTSSDVGSYNLVSWYQQHPGKAPKLMIYEGRKRPSGVSNRFSGSKSGNTASLTISGLQAEDEADYYCCSYAGSSTYVFGTGTKVTVL
With B14 the “bead binding signal (fold over isotype control)” value [2] was 1.12.

B15: anti-coronavirus antibody 546 (antibody, V domains shown)
VH: QVQLVESGGGVVQPGRSLRLSCAASGFTFSSYGMHWVRQAPGKGLEWVAVIWYDGSNKYYADSVKGRFTISRDNSKNTLYLQMNSLRAEDTAVYYCARNCGGDCVAGDGFDYWGQGTLVTVSS
VL: DIQMTQSPSSLSASVGDRVTITCRASQSISSYLNWYQQKPGKAPNLLIYAASSLQSGVPSRFSGSGSGTDFTLTISSLQPEDFATYYCQQSYSALTWTFGQGTKVEIK
In the case of B15, the “binding signal (fold over isotype control)” value [5] is reported as 1.18 fold over isotype control.

B16: antibody 476 (antibody, V domains shown)
VH: QVQLVQSGSELKKPGASVKVSCKASGYTFTSYAMNWVRQAPGQGLEWMGWINTNTGNPTYAQGFTGRFVFSLDTSVSTAYLQISSLKAEDTGVYYCARDHELPNSSSWFGHFEYWGQGTLVTVSS
VL: SYELTQPPSVSVSPGQTARITCSGDALPKQYAYWYQQKAGQAPVLVIYKDSERRSGIPERFSGSSSGTTVTLTISGVQAEDEADYYCQSADSSGTSVVFGGGTKLTVL
For B16, the “bead binding signal (fold over isotype control)” value [2] was 1.04.

B17: anti-coronavirus antibody 545 (antibody, V domains shown)
VH: QVQLVQSGSELKKPGASVKVSCKASGYTFTSYAMNWVRQAPGQGLEWMGWINTNTGNPTYAQGFTGRFVFSLDTSVSTAYLQISVLKAEDTGVYYCARDHELPNSSSWFGHFEYWGQGTLVTVSS
VL: SYELTQPPSVSVSPGQTARITCSGDALPKQYAYWYQQKAGQAPVLVIYKDSERRSGIPERFSGSSSGTTVTLTISGVQAEDEADYYCQSADSSGTSVVFGGGTKLTVL
In the case of B17, the “binding signal (fold over isotype control)” value [5] is reported as 1.13 fold over isotype control.

B18: anti-SARS-CoV-2 antibody 1585 (antibody, V domains shown)
VH: QVQLVESGGGVVQPGRSLRLSCAASGFTFSRFTLHWVRQAPGKGLEWVAVISYDGSNKYYADSVKGRFTISRDNSKSTLYLQMNSLRAEDTGVYYCARDPSTVTGYFDYWGQGTLVTVSS
VL: SYVLTQPPSVSVAPGKTAKISCGGDSIGSKSVHWYQQKPGQAPVLVIYYDNDRPSGIPERFSGSNSGNTATLTISRVEAGDEADYYCQVWDIGVVFGGGTKLTVLG
B18 was tested, and the “median fluorescence intensity, fold” value [3] was 9.55 fold over isotype and the “median fluorescence intensity, fold” value [4] was 19.9 fold over isotype.

B19: mAb 1585 (antibody, V domains shown)
VH: QVQLVESGGGVVQPGRSLRLSCAASGFTFSRFTLHWVRQAPGKGLEWVAVISYDGSNKYYADSVKGRFTISRDNSKSTLYLQMNSLRAEDTGVYYCARDPSTVTGYFDYWGQGTLVTVSS
VL: SYVLTQPPSVSVAPGKTAKISCGGDSIGSKSVHWYQQKPGQAPVLVIYYDNDRPSGIPERFSGSNSGNTATLTISRVEAGDEADYYCQVWDIGVVFGGGTKLTVLG
notes: human IgG1
In the case of B19, the Kd [1] is reported as ≤ 0.0171 nM, the koff [1] is reported as ≤ 1e-05 s⁻¹ and the kon [1] is reported as 586000 M⁻¹ s⁻¹.

B20: mAb 1444 (antibody, V domains shown)
VH: QVQLVQSGAEVKKPGASVKVSCKASGYTFTAYYMHWVRQAPGQGLEWMGWINPNSDDTNYAQKFQGRVTMTRDTSISTAYMELSRLRSDDTAVYYCAREEGVFTIGDRYFDLWGRGTLVSVSS
VL: QTVVTQEPSFSVSPGGTVTLTCGLSSGSVSTSYYPSWYQQTPGQAPRTLIYNTNTRSSGVPDRFSGSILGNKAALTITGAQADDESDYYCVLYMGSGIWVFGGGTKLTVLG
notes: human IgG1
With B20 the Kd [1] was ≤ 0.0221 nM, the koff [1] was ≤ 1e-05 s⁻¹ and the kon [1] was 453000 M⁻¹ s⁻¹.

B21: anti-SARS-CoV-2 antibody 1037 (antibody, V domains shown)
VH: QITLKESGPTLVKPTQTLTLTCTFSGFSLSTSGVGVGWIRQPPGKALEWLALIYWDDDKRYSPSLKSRLTITKDTSKNQVVLTMTNMDPVDTATYYCAHHTITRINDYWGQGTLVTVSS
VL: QSALTQPASVSGSPGQSITISCTATSSDVGAYNYVSWYQQHPGKAPKLMIYDVSKRPSGVSNRFSGSKSGNTASLTISGLQAEDEADYYCSSYTSSSTVFGGGTKLTVLG
For B21, the “median fluorescence intensity, fold” value [3] was 83 fold over isotype and the “median fluorescence intensity, fold” value [4] was 23.1 fold over isotype.
